The test system of this assay is SARS-CoV-2 gRNA and sgRNAs. Type of assay: binding. Conditions: for target (unweighted spectral count of the protein in the RNP capture experiment): LC-MS/MS label-free quantification, probe pool not given; for back-ground (unweighted spectral count of the protein in the control experiment): protein background of the control (e.g. no-probe) experiment.

B1: NUFIP2 (protein, UniProt Q7Z417 1-695, looked up)
FMR1-interacting protein …: MEEKPGQPQPQHHHSHHHPHHHPQQQQQQPHHHHHYYFYNHSHNHHHHHHHQQPHQYLQHGAEGSPKAQPKPLKHEQKHTLQQHQETPKKKTGYGELNGNAGEREISLKNLSSDEATNPISRVLNGNQQVVDTSLKQTVKANTFGKAGIKTKNFIQKNSMDKKNGKSYENKSGENQSVDKSDTIPIPNGVVTNNSGYITNGYMGKGADNDGSGSESGYTTPKKRKARRNSAKGCENLNIVQDKIMQQETSVPTLKQGLETFKPDYSEQKGNRVDGSKPIWKYETGPGGTSRGKPAVGDMLRKSSDSKPGVSSKKFDDRPKGKHASAVASKEDSWTLFKPPPVFPVDNSSAKIVPKISYASKVKENLNKTIQNSSVSPTSSSSSSSSTGETQTQSSSRLSQVPMSALKSVTSANFSNGPVLAGTDGNVYPPGGQPLLTTAANTLTPISSGTDSVLQDMSLTSAAVEQIKTSLFIYPSNMQTMLLSTAQVDLPSQTDQQNLGDIFQNQWGLSFINEPSAGPETVTGKSSEHKVMEVTFQGEYPATLVSQGAEIIPSGTEHPVFPKAYELEKRTSPQVLGSILKSGTTSESGALSLEPSHIGDLQKADTSSQGALVFLSKDYEIESQNPLASPTNTLLGSAKEQRYQRGLERNDSWGSFDLRAAIVYHTKEMESIWNLQKQDPKRIITYNEAMDSPDQ
Consider B1, for which the “target (unweighted spectral count in RNP capture)” value (Probe II capture, […], LC-MS/MS LFQ) is 10. Under “no-probe control pull-down, used as background for Probe II”, the “background (unweighted spectral count in control)” value was 1.

B2: ACLY (protein, UniProt P53396 1-1101, looked up)
ATP-citrate synthase: MSAKAISEQTGKELLYKFICTTSAIQNRFKYARVTPDTDWARLLQDHPWLLSQNLVVKPDQLIKRRGKLGLVGVNLTLDGVKSWLKPRLGQEATVGKATGFLKNFLIEPFVPHSQAEEFYVCIYATREGDYVLFHHEGGVDVGDVDAKAQKLLVGVDEKLNPEDIKKHLLVHAPEDKKEILASFISGLFNFYEDLYFTYLEINPLVVTKDGVYVLDLAAKVDATADYICKVKWGDIEFPPPFGREAYPEEAYIADLDAKSGASLKLTLLNPKGRIWTMVAGGGASVVYSDTICDLGGVNELANYGEYSGAPSEQQTYDYAKTILSLMTREKHPDGKILIIGGSIANFTNVAATFKGIVRAIRDYQGPLKEHEVTIFVRRGGPNYQEGLRVMGEVGKTTGIPIHVFGTETHMTAIVGMALGHRPIPNQPPTAAHTANFLLNASGSTSTPAPSRTASFSESRADEVAPAKKAKPAMPQDSVPSPRSLQGKSTTLFSRHTKAIVWGMQTRAVQGMLDFDYVCSRDEPSVAAMVYPFTGDHKQKFYWGHKEILIPVFKNMADAMRKHPEVDVLINFASLRSAYDSTMETMNYAQIRTIAIIAEGIPEALTRKLIKKADQKGVTIIGPATVGGIKPGCFKIGNTGGMLDNILASKLYRPGSVAYVSRSGGMSNELNNIISRTTDGVYEGVAIGGDRYPGSTFMDHVLRYQDTPGVKMIVVLGEIGGTEEYKICRGIKEGRLTKPIVCWCIGTCATMFSSEVQFGHAGACANQASETAVAKNQALKEAGVFVPRSFDELGEIIQSVYEDLVANGVIVPAQEVPPPTVPMDYSWARELGLIRKPASFMTSICDERGQELIYAGMPITEVFKEEMGIGGVLGLLWFQKRLPKYSCQFIEMCLMVTADHGPAVSGAHNTIICARAGKDLVSSLTSGLLTIGDRFGGALDAAAKMFSKAFDSGIIPMEFVNKMKKEGKLIMGIGHRVKSINNPDMRVQILKDYVRQHFPATPLLDYALEVEKITTSKKPNLILNVDGLIGVAFVDMLRNCGSFTREEADEYIDIGALNGIFVLGRSMGFIGHYLDQKRLKQGLYRHPWDDISYVLPEHMSM
Regarding B2, where the note is “[…]”, the “target (unweighted spectral count of the protein in the RNP capture experiment)” value is 6 and the “back-ground (unweighted spectral count of the protein in the control experiment)” value was found to be 1.

B3: CRIP2 (protein, UniProt P52943 1-208, looked up)
Cysteine-rich protein 2: MASKCPKCDKTVYFAEKVSSLGKDWHKFCLKCERCSKTLTPGGHAEHDGKPFCHKPCYATLFGPKGVNIGGAGSYIYEKPLAEGPQVTGPIEVPAARAEERKASGPPKGPSRASSVTTFTGEPNTCPRCSKKVYFAEKVTSLGKDWHRPCLRCERCGKTLTPGGHAEHDGQPYCHKPCYGILFGPKGVNTGAVGSYIYDRDPEGKVQP
As for B3, where the note is “[…]”, the “target (unweighted spectral count of the protein in the RNP capture experiment)” value came out at 6 and the “back-ground (unweighted spectral count of the protein in the control experiment)” value was 1.

The values are drawn from patent US20230407373A1 (priority 2020, published 2023).
